Experimental data published in publication PMC2897144 (Hypertension, 2009).

B1: G protein-coupled receptor kinase type 4 (enzyme, human (endogenous in RPTCs), UniProt P32298 1-578, looked up)
chain: MELENIVANSLLLKARQGGYGKKSGRSKKWKEILTLPPVSQCSELRHSIEKDYSSLCDKQPIGRRLFRQFCDTKPTLKRHIEFLDAVAEYEVADDEDRSDCGLSILDRFFNDKLAAPLPEIPPDVVTECRLGLKEENPSKKAFEECTRVAHNYLRGEPFEEYQESSYFSQFLQWKWLERQPVTKNTFRHYRVLGKGGFGEVCACQVRATGKMYACKKLQKKRIKKRKGEAMALNEKRILEKVQSRFVVSLAYAYETKDALCLVLTIMNGGDLKFHIYNLGNPGFDEQRAVFYAAELCCGLEDLQRERIVYRDLKPENILLDDRGHIRISDLGLATEIPEGQRVRGRVGTVGYMAPEVVNNEKYTFSPDWWGLGCLIYEMIQGHSPFKKYKEKVKWEEVDQRIKNDTEEYSEKFSEDAKSICRMLLTKNPSKRLGCRGEGAAGVKQHPVFKDINFRRLEANMLEPPFCPDPHAVYCKDVLDIEQFSVVKGIYLDTADEDFYARFATGCVSIPWQNEMIESGCFKDINKSESEEALPLDLDKNIHTPVSRPNRGFFYRLFRRGGCLTMVPSEKEVEPKQC
B2: caveolin-1 (natural protein, human (endogenous in RPTCs), UniProt Q03135 1-178, looked up)
chain: MSGGKYVDSEGHLYTVPIREQGNIYKPNNKAMADELSEKQVYDAHTKEIDLVNRDPKHLNDDVVKIDFEDVIAEPEGTHSFDGIWKASFTTFTVTKYWFYRLLSALFGIPMALIWGIYFAILSFLHIWAVVPCIKSFLIEIQCISRVYSIYVHTVCDPLFEAVGKIFSNVRINLQKEI

Legend:
caveolin-1 = molecular target: B2; test: co-IP
[1] = molecular target: B1; test: co-IP

decrease of co-immunoprecipitation in uRPTCs relative to nRPTCs (caveolin-1)	decrease of co-immunoprecipitation in uRPTCs relative to nRPTCs [1]	Binder
58%		B1
	55.6%	B2
